Columns and labels:
[1] = biological target: T1, biotinylated hOX40L (R&D Systems, biotinylated in house) (human, UniProt P23510 51-183, biotinylated with Sulfo-NHS-LC-Biotin, sites not stated); experiment: hOX40L/hOX40 AlphaScreen
T1 construct: same bought protein as m10, biotinylated; also called biotinylated OX40L
T1 sequence: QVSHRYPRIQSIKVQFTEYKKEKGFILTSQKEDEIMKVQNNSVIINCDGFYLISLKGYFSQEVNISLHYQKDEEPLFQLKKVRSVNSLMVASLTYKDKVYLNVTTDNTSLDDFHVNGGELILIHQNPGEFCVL

[2] = biological target: T1, biotinylated hOX40L (R&D Systems, …); experiment: AlphaScreen, 31 pM biotinylated hOX40L + 80 pM OX40/Fc
Protocol: (§1) Next, streptavidin donor beads were added and incubated for an additional 1 hour. Fluorescence was measured by reading plates on the EnVision Multilabel Plate Reader using an excitation wavelength of 680 nm and an emission wavelength of 520 nm.

[3] = biological target: T2, recombinant human OX40L (extracellular domain, R&D Systems) (human, UniProt P23510 51-183); experiment: SPR, second injection after competitor OX40L01E07
T2 construct: also called hOX40L; rec. hOX40L
T2 sequence: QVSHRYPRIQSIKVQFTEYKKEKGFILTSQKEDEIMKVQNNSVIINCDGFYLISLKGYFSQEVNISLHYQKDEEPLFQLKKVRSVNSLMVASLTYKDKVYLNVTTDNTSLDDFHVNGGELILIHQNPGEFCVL
Protocol: (§2) In addition, it was investigated to what extend the 7 anti-OX40L Nanobodies have a different or identical or overlapping epitope. Standard conditions were as described above. […] 1300 RU. A dual injection was performed at 10 μl/min for 2 min, starting with 500 nM of the first Nanobody, followed by 500 nM of the second Nanobody. After 10 min dissociation, regeneration of the surface was performed by injection of 50 mM NaOH for 5-20 sec at 100 μl/min.

[4] = biological target: T2, recombinant human OX40L (extracellular …); experiment: SPR, second injection after competitor OX40L18E09
Protocol: as §2

[5] = biological target: T2, recombinant human OX40L (extracellular …); experiment: SPR, second injection after competitor OX40L01B11
Protocol: as §2

[6] = biological target: hTNF-alpha (human, UniProt P01375 77-233); experiment: competition ELISA on neutravidin captured biotinylated hOX40L
Protocol: (§3) The binding of OX40L blocking Nanobodies to other TNF family members was tested in a competition ELISA.
(§4) Detection was done using sTMB (SDT Reagents, Baesweiler, Germany), the reaction was stopped with 1M HCl and absorbance was determined at 450 nm.

[7] = biological target: T3, human Receptor Activator for Nuclear Factor kappa B Ligand (human, UniProt O14788 143-317, limits assumed); experiment: as above
T3 construct: also called hRANKL; RANKL
T3 sequence (looked up): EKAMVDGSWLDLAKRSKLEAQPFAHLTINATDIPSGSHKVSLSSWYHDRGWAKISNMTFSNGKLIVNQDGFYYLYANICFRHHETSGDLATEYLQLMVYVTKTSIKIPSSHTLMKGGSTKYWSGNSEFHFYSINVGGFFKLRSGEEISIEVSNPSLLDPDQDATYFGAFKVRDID
Protocol: as §3, §4

[8] = biological target: T4, human tumor necrosis factor-related apoptosis inducing ligand (human, UniProt P50591 114-281); experiment: as above
T4 construct: also called hTRAIL; TRAIL
Protocol: as §3, §4

[9] = biological target: T5, hCD30L (human, UniProt P32971 63-234); experiment: as above
T5 sequence (looked up): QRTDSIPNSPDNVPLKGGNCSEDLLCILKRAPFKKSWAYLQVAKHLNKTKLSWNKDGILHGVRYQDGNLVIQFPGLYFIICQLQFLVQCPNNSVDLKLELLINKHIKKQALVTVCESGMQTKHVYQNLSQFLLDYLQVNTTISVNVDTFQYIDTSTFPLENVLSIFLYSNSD
Protocol: as §3, §4

[10] = biological target: T6, hCD40L (human, UniProt P29965 113-261); experiment: as above
T6 sequence (looked up): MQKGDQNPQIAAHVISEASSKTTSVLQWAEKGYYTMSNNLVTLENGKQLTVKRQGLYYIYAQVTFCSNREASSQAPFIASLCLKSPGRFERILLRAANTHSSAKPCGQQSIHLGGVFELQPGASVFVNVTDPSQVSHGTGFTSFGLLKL
Protocol: as §3, §4

[11] = biological target: T1, biotinylated hOX40L (R&D Systems, …); experiment: AlphaScreen, 120 pM biotinylated hOX40L + 0.2 nM hOX40/Fc
Protocol: as §1

[12] = biological target: T2, recombinant human OX40L (extracellular …); experiment: SPR, second injection after competitor OX40L19A07
Protocol: as §2

[13] = biological target: T2, recombinant human OX40L (extracellular …); experiment: SPR, second injection after competitor OX40L15B07
Protocol: as §2

[14] = biological target: T7, full length human OX40L expressed on CHO cells (human, UniProt P23510 1-183); experiment: FACS binding to CHO cells, anti-c-myc detection
T7 construct: CHO K1 stably transfected as described for CAKI cells; also called CHO-hOX40L; hOX40L expressing CHO cells
T7 sequence: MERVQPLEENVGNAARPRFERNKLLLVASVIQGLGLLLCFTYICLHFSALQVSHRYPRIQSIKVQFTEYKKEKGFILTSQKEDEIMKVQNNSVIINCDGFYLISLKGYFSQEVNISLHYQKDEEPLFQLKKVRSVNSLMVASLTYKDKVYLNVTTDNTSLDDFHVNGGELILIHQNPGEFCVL
Protocol: (§5) Transfection of CHO K1 with the respective expression plasmid DNA and selection of clones with high expression levels was performed as described in Example 1. Binding of the Nanobodies to the cell surface expressed OX40L was assessed by FACS analysis of cells as described below.
(§6) After washing bound Nanobodies were detected in FACSArray™ using mouse anti-c-myc and PE conjugated goat anti-mouse IgG.

[15] = biological target: T8, cynomolgus OX40L expressed on CHO cells (cynomolgus monkey, UniProt P23510 1-183 (human entry)); experiment: FACS binding to CHO cells, anti-c-myc detection
T8 construct: also called cynoOX40L; CHO-cynoOX40L
T8 chain: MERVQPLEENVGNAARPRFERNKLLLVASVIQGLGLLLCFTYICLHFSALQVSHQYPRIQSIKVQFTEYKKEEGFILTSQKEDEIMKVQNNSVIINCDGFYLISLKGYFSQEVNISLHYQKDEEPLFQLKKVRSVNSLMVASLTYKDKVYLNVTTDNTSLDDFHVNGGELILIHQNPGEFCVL
Protocol: as §5, §6

[16] = biological target: T2, recombinant human OX40L (extracellular …); experiment: SPR, second injection after competitor OX40L19D08
Protocol: as §2

[17] = biological target: T7, full length human OX40L expressed on …; experiment: cell-based or functional assay
[18] = biological target: T2, recombinant human OX40L (extracellular …); experiment: SPR, after second injection of buffer HBS-EP+
Protocol: as §2

[19] = biological target: T2, recombinant human OX40L (extracellular …); experiment: SPR, second injection after competitor OX40L01E10
Protocol: as §2

[20] = biological target: T7, full length human OX40L expressed on …; experiment: competition FACS with hOX40/Fc on CHO-hOX40L
Protocol: The competition FACS assay was performed as described in example 2.

[21] = biological target: T7, full length human OX40L expressed on …; experiment: competition FACS, 3.1 nM hOX40/Fc on hOX40L expressing cells

T4 sequence (P50591 114-281 limits assumed): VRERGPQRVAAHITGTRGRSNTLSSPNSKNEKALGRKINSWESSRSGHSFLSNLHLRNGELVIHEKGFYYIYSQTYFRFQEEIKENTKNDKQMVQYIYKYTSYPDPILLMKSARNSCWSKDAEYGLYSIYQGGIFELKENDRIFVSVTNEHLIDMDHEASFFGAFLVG
Sequence of hTNF-alpha (P01375 77-233 limits assumed): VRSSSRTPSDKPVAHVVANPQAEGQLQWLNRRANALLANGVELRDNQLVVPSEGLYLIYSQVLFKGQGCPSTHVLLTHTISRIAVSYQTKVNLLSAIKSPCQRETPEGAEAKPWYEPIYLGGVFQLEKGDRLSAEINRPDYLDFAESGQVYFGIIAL

Binder | IC50 [2] [nM] | Binding Level sample 2 (RU) [3] [RU] | Binding Level sample 2 - sample 1 (RU) [3] [RU] | Binding Level sample 2 (RU) [4] [RU] | Binding Level sample 2 - sample 1 (RU) [4] [RU] | Binding Level sample 2 (RU) [5] [RU] | Binding Level sample 2 - sample 1 (RU) [5] [RU] | binding result [6] | binding result [7] | binding result [8] | binding result [9] | binding result [10] | IC50 [11] [nM] | Binding Level sample 2 (RU) [12] [RU] | Binding Level sample 2 - sample 1 (RU) [12] [RU] | Binding Level sample 2 (RU) [13] [RU] | Binding Level sample 2 - sample 1 (RU) [13] [RU] | EC50 [14] [nM] | EC50 [15] [nM] | Binding Level sample 2 (RU) [16] [RU] | further results
OX40L083 (VHH, not shown: small tags and cut ends) VHH: EVQLVESGGGLVQPGGSLRLSCAASRSIGRLDRMGWYRHRPGKPRELVATITGGSSINYGDSVKGRFTISIDNSKNTVYLQMNSLRPEDTAVYYCNFNKYVTSRDTWGQGTLVTVSS |  |  |  |  |  |  |  |  |  |  |  |  |  |  |  |  |  |  |  |  | fold drop in potency compared with the parental Nanobody OX40L15B07 [1]: ~6 fold
OX40L19A07 (VHH, monovalent Nanobody from E. coli; not shown: C-terminal c-myc and His6 tag) VHH: EVQLVESGGGLVQAGGSLRLSCAASGFTLDDYAIAWFRQAPGKEREGVSRIKISNGRTTYAGSVKGRFTISSDNAKNTVYLQMNSLNAEDTAVYYCAADRSSLLFGSNWDRKARYDYWGQGTQVTVSS | 0.355 | 179 | -3 | 194 | 2 | 371 | 70 | no binding (tested: starting from 100 fold molar excess) | no binding (tested: starting from 100 fold molar excess) | no binding (tested: starting from 100 fold molar excess) | no binding (tested: starting from 100 fold molar excess) | no binding (tested: starting from 100 fold molar excess) | 0.54 | 183 | 6 | 207 | 9 | 5.67 | 5.34 | 205 | Binding Level sample 2 - sample 1 (RU) [16]: -24 RU; IC50, IL4 production, T-cell activation assay, donor 1 [17]: 596 nM; IC50, IL4 production, T-cell activation assay, donor 2 [17]: 618 nM; Binding Level sample 2 (RU) [18]: 160 RU; Binding Level sample 2 - sample 1 (RU) [18]: -15 RU; Binding Level sample 2 (RU) [19]: 239 RU; Binding Level sample 2 - sample 1 (RU) [19]: 12 RU; IC50 [20]: 13 nM; IC50 [21]: 16.6 nM
OX40L19D08 (VHH, monovalent Nanobody from E. coli; not shown: C-terminal c-myc and His6 tag) VHH: EVQLVESGGGLVQAGASLRLSCAASGRRFISNYAMGWFRQAPGQERAFVAAISRSGSITYYTDSVKGRFSISRDYAKSTVYLQMDNLKPEDTAVYYCAADGGAVRDLTTNLPDYWGRGTQVTVSS | 0.133 | 187 | 3 | 224 | 33 | 468 | 159 | no binding (tested: starting from 100 fold molar excess) | no binding (tested: starting from 100 fold molar excess) | no binding (tested: starting from 100 fold molar excess) | no binding (tested: starting from 100 fold molar excess) | no binding (tested: starting from 100 fold molar excess) | 0.285 | 224 | 47 | 239 | 42 | 2.85 | 3.4 | 236 | Binding Level sample 2 - sample 1 (RU) [16]: 7 RU; IC50, IL4 production, T-cell activation assay, donor 1 [17]: 90 nM; IC50, IL4 production, T-cell activation assay, donor 2 [17]: 132 nM; IC50, IL4 production, T-cell activation assay, donor 3 [17]: 36 nM; IC50, IL4 production, T-cell activation assay, donor 4 [17]: 96 nM; Binding Level sample 2 (RU) [18]: 184 RU; Binding Level sample 2 - sample 1 (RU) [18]: -38 RU; Binding Level sample 2 (RU) [19]: 275 RU; Binding Level sample 2 - sample 1 (RU) [19]: 49 RU; IC50 [20]: 4 nM; IC50 [21]: 3.31 nM
